From patent US20140274782A1, “AFFINITY REAGENTS AND METHODS FOR DETECTION, PURIFICATION, AND PROTEOMIC ANALYSIS OF METHYLATED PROTEINS” (The Board of Trustees of the Leland Stanford Junior …, priority 2013, published 2014)

Assays:
[1] = system: 3×MBT domain of L3MBTL1; experiment: SILAC proteomic pull-down 3×MBT vs 3×MBTD355N from 293T nuclear extract, LC-MS/MS; assay type: binding, human; conditions: SILAC ratio, 293T nuclear extract pull-down; * = protein identified in only one labeling experiment
Description: Protein pull-downs were performed as described above using 600 μg of nuclear extract prepared with isotopic labels as indicated. After eluting with glutathione, 3×MBT domain was removed by dialysis into high salt and rebinding to GSH-sepharose. Bound proteins were separated by SDS-PAGE and analyzed by in-gel tryptic digest followed by LC-MS/MS. Peptides were identified using MaxQuant version 1.2.2.5 (Cox and Mann (2008) Nat. Biotechnol. 26, 1367-1372) and candidate methylated peptides were verified by manual inspection.
For stable isotope labeling by amino acids in cell culture (SILAC) experiments HEK 293T cells were grown for at least six doublings in DMEM for SILAC supplemented with 10% dialyzed fetal bovine serum (FBS), 230 mg/L L-proline and either 100 mg/L each of L-lysine and L-arginine (“light” medium), D4-L-lysine and ^13C6-L-arginine (“medium” media), or ^13C6^15N2-L-lysine and ^13C6^15N4-L-arginine (Thermo Scientific). Heavy methyl labeling used DMEM without L-Methionine or L-Cysteine supplemented with D3^13C-L-Methionine (Sigma), L-Cysteine (Sigma) and 10% dialyzed FBS.
600 μg of nuclear extract was incubated overnight rotating at 4° C. with 20 μl packed 3×MBT or 3×MBTD355N beads in a total volume of 250 μL with binding buffer. Supernatant was removed and saved for use as a loading control. Beads were washed 4×5 minutes with 0.5 mL binding buffer. Protein was eluted by incubating in 20 μL elution buffer (10 mg/mL glutathione in 50 mM Tris pH 8.0) rotating at 4° C. for four hours. Elutions from 3×MBT and 3×MBTD355N were combined and dialyzed overnight at 4° C. against 10,000× volume of dissociation buffer (50 mM Tris pH 7.5, 750 mM NaCl) in a 0.1 mL Slide-A-Lyzer MINI Dialysis Device with 3.5K molecular weight cutoff (Thermo Scientific). 80 μL of GSH-Sepharose was prepared by washing briefly three times with 0.5 mL binding buffer. Dialyzed proteins were added to the GSH-Sepharose and incubated 4 hours rotating at 4° C. to deplete the GST-fusion domains. Supernatant was transferred to a fresh 1.5 mL tube. Proteins were separated by SDS-PAGE on a 10% polyacrylamide gel and stained using SilverQuest Silver Staining Kit (Life Technologies). Lanes were excised, residual 3×MBT band was removed, and gel was diced into 0.5 mm cubes. Gel pieces were destained and processed by in-gel digestion (Carlson et al. (2011) Science Signaling 4) with sequencing grade trypsin (Promega) and the peptide sample was dried completely in a vacuum centrifuge. To prepare a loading control, 2 μL each of light and heavy nuclear extract were combined, 6 μL of 8M urea was added, proteins were denatured by adding 2 μL of 100 mM dithiothreitol in digest buffer (50 mM ammonium bicarbonate) and heating to 60° C. for 1 hour, cysteine was alkylated by adding 2.2 μL 100 mg/mL iodoacetamide in digest buffer and incubating 1 hour at room temperature in darkness, and proteins were digested by adding 80 μL trypsin (Promega) at 12.5 ng/μL in digest buffer and incubating overnight at room temperature in darkness. Digestion was stopped by adding 10 μL of 10% formic acid.
Each experiment consisted of two sets of pull-downs: “forward” labeling with 3×MBT incubated with light nuclear extract and 3×MBTD355N with medium extract, and a second “reverse” labeling experiment with the label conditions swapped. Proteins were included in the results if they were quantified in both labeling directions. To determine reproducibility the entire experiment including the label swap was duplicated using independent protein preparations and a mass spectrometer at another institution.
For 3×MBT pull-down experiment #1 the gel lane was processed and peptides were loaded off-line onto a first dimension trap column (Waters Xbridge, C18, 10 μm particle size, 100 Å pore size, 5 cm packing length, 150 μm column i.d.). […]

[2] = target: T1, G9a (Homo sapiens, UniProt Q96KQ7); experiment: In vitro methylation reaction with 3H-SAM, autoradiograph; assay type: biochemical; conditions: recombinant SIRT1, recombinant G9a SET domain
T1 construct: in vitro methylation assays on SIRT1 and SIRT1K622R using recombinant G9a SET domain
Description: Recombinant GST-SIRT1 was expressed by baculoviral transduction of the Sf9 insect cell line as previously described (Levy et al. (2011) Nat. Immunol. 12, 29-36). A panel of enzymes was tested for ability to methylate recombinant SIRT1 using ^3H-SAM in in vitro methylation reactions (Kuo et al. (2011) Mol. Cell 44, 609-620). SIRT1K622R was generated by site-directed mutagenesis (Stratagene). For the pull-down experiment, 293T cells were transfected with a 10:1 enzyme:substrate DNA ratio. 150 μg of nuclear proteins were used for pull-downs with 3×MBT or 3×MBTD355N coupled GSH-Sepharose as described above.

T1 sequence (Q96KQ7 1038-1155 limits assumed, species assumed): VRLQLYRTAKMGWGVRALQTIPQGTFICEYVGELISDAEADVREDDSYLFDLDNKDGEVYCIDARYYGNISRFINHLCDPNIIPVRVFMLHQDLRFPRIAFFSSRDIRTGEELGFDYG

Molecule	Protein Ratio 3xMBT/D355N [1]	in vitro methylation by G9a [2]
hnRNP D: protein with methylated lysine identified in 3xMBT pull-down (protein, UniProt Q14103 2-355, looked up) Heterogeneous nuclear …: SEEQFGGDGAAAAATAAVGGSAGEQEGAMVAATQGAAAAAGSGAGTGGGTASGGTEGGSAESEGAKIDASKNEEDEGHSNSSPRHSEAATAQREEWKMFIGGLSWDTTKKDLKDYFSKFGEVVDCTLKLDPITGRSRGFGFVLFKESESVDKVMDQKEHKLNGKVIDPKRAKAMKTKEPVKKIFVGGLSPDTPEEKIREYFGGFGEVESIELPMDNKTNKRRGFCFITFKEEEPVKKIMEKKYHNVGLSKCEIKVAMSKEQYQQQQQWGSRGGFAGRARGRGGGPSQNWNQGYSNYWNQGYGNYGYNSQGYGGYGGYDYTGYNNYYGYGDYSNQQSGYGKVSRRGGHQNSYKPY	22.5	–
TUBB4: protein with methylated lysine identified in 3xMBT pull-down (protein, UniProt P04350 1-444, looked up) Tubulin beta-4A chain: MREIVHLQAGQCGNQIGAKFWEVISDEHGIDPTGTYHGDSDLQLERINVYYNEATGGNYVPRAVLVDLEPGTMDSVRSGPFGQIFRPDNFVFGQSGAGNNWAKGHYTEGAELVDAVLDVVRKEAESCDCLQGFQLTHSLGGGTGSGMGTLLISKIREEFPDRIMNTFSVVPSPKVSDTVVEPYNATLSVHQLVENTDETYCIDNEALYDICFRTLKLTTPTYGDLNHLVSATMSGVTTCLRFPGQLNADLRKLAVNMVPFPRLHFFMPGFAPLTSRGSQQYRALTVPELTQQMFDAKNMMAACDPRHGRYLTVAAVFRGRMSMKEVDEQMLSVQSKNSSYFVEWIPNNVKTAVCDIPPRGLKMAATFIGNSTAIQELFKRISEQFTAMFRRKAFLHWYTGEGMDEMEFTEAESNMNDLVSEYQQYQDATAEEGEFEEEAEEEVA	1.9	–
FAM50A: protein with methylated lysine identified in 3xMBT pull-down (protein, UniProt Q14320 2-339, looked up, methylated lysine, protein with methylated lysine identified in 3xMBT pull-down) Protein FAM50A: AQYKGAASEAGRAMHLMKKREKQREQMEQMKQRIAEENIMKSNIDKKFSAHYDAVEAELKSSTVGLVTLNDMKAKQEALVKEREKQLAKKEQSKELQMKLEKLREKERKKEAKRKISSLSFTLEEEEEGGEEEEEAAMYEEEMEREEITTKKRKLGKNPDVDTSFLPDRDREEEENRLREELRQEWEAKQEKIKSEEIEITFSYWDGSGHRRTVKMRKGNTMQQFLQKALEILRKDFSELRSAGVEQLMYIKEDLIIPHHHSFYDFIVTKARGKSGPLFNFDVHDDVRLLSDATVEKDESHAGKVVLRSWYEKNKHIFPASRWEPYDPEKKWDKYTIR	3.7*	–
SIRT1: NAD-dependent lysine deactylase SIRT1 (protein, UniProt Q96EB6 2-747, looked up, GST or 3xFlag tag) NAD-dependent protein …: ADEAALALQPGGSPSAAGADREAASSPAGEPLRKRPRRDGPGLERSPGEPGGAAPEREVPAAARGCPGAAAAALWREAEAEAAAAGGEQEAQATAAAGEGDNGPGLQGPSREPPLADNLYDEDDDDEGEEEEEAAAAAIGYRDNLLFGDEIITNGFHSCESDEEDRASHASSSDWTPRPRIGPYTFVQQHLMIGTDPRTILKDLLPETIPPPELDDMTLWQIVINILSEPPKRKKRKDINTIEDAVKLLQECKKIIVLTGAGVSVSCGIPDFRSRDGIYARLAVDFPDLPDPQAMFDIEYFRKDPRPFFKFAKEIYPGQFQPSLCHKFIALSDKEGKLLRNYTQNIDTLEQVAGIQRIIQCHGSFATASCLICKYKVDCEAVRGDIFNQVVPRCPRCPADEPLAIMKPEIVFFGENLPEQFHRAMKYDKDEVDLLIVIGSSLKVRPVALIPSSIPHEVPQILINREPLPHLHFDVELLGDCDVIINELCHRLGGEYAKLCCNPVKLSEITEKPPRTQKELAYLSELPPTPLHVSEDSSSPERTSPPDSSVIVTLLDQAAKSNDDLDVSESKGCMEEKPQEVQTSRNVESIAEQMENPDLKNVGSSTGEKNERTSVAGTVRKCWPNRVAKEQISRRLDGNQYLFLPPNRYIFHGAEVYSDSEDDVLSSSSCGSNSDSGTCQSPSLEEPMEDESEIEEFYNGLEDEPDVPERAGGAGFGTDGDDQEAINEAISVKQEVTDMNYPSNKS	–	methylates the NAD-dependent lysine deactylase SIRT1 at lysine 622
eEF1A2: protein with methylated lysine identified in 3xMBT pull-down (protein, UniProt Q05639 2-463, looked up) Elongation factor 1-alpha 2: GKEKTHINIVVIGHVDSGKSTTTGHLIYKCGGIDKRTIEKFEKEAAEMGKGSFKYAWVLDKLKAERERGITIDISLWKFETTKYYITIIDAPGHRDFIKNMITGTSQADCAVLIVAAGVGEFEAGISKNGQTREHALLAYTLGVKQLIVGVNKMDSTEPAYSEKRYDEIVKEVSAYIKKIGYNPATVPFVPISGWHGDNMLEPSPNMPWFKGWKVERKEGNASGVSLLEALDTILPPTRPTDKPLRLPLQDVYKIGGIGTVPVGRVETGILRPGMVVTFAPVNITTEVKSVEMHHEALSEALPGDNVGFNVKNVSVKDIRRGNVCGDSKSDPPQEAAQFTSQVIILNHPGQISAGYSPVIDCHTAHIACKFAELKEKIDRRSGKKLEDNPKSLKSGDAAIVEMVPGKPMCVESFSQYPPLGRFAVRDMRQTVAVGVIKNVEKKSGGAGKVTKSAQKAQKAGK	1.5	–
